Data taken from patent US20030124529.

B1: recombinant wild-type PAPP-A2 (pregnancy-associated plasma protein-A2), in medium of 293T cells transfected with pPA2 (protein)
chain: SPPEESNQNGGEGSYREAETFNSQVGLPILYFSGRRERLLLRPEVLAEIPREAFTVEAWVKPEGGQNNPAIIAGVFDNCSHTVSDKGWALGIRSGKDKGKRDARFFFSLCTDRVKKATILISHSRYQPGTWTHVAATYDGRHMALYVDGTQVASSLDQSGPLNSPFMASCRSLLLGGDSSEDGHYFRGHLGTLVFWSTALPQSHFQHSSQHSSGEEEATDLVLTASFEPVNTEWVPFRDEKYPRLEVLQGFEPEPEILSPLQPPLCGQTVCDNVELISQYNGYWPLRGEKVIRYQVVNICDDEGLNPIVSEEQIRLQHEALNEAFSRYNISWQLSVHQVHNSTLRHRVVLVNCEPSKIGNDHCDPECEHPLTGYDGGDCRLQGRCYSWNRRDGLCHVECNNMLNDFDDGDCCDPQVADVRKTCFDPDSPKRAYMSVKELKEALQLNSTHFLNIYFASSVREDLAGAATWPWDKDAVTHLGGIVLSPAYYGMPGHTDTMIHEVGHVLGLYHVFKGVSERESCNDPCKETVPSMETGDLCADTAPTPKSELCREPEPTSDTCGFTRFPGAPFTNYMSYTDDNCTDNFTPNQVARMHCYLDLVYQQWTESRKPTPIPIPPMVIGQTNKSLTIHWLPPISGVVYDRASGSLCGACTEDGTFRQYVHTASSRRVCDSSGYWTPEEAVGPPDVDQPCEPSLQAWSPEVHLYHMNMTVPCPTEGCSLELLFQHPVQADTLTLWVTSFFMESSQVLFDTEILLENKESVHLGPLDTFCDIPLTIKLHVDGKVSGVKVYTFDERIEIDAALLTSQPHSPLCSGCRPVRYQVLRDPPFASGLPVVVTHSHRKFTDVEVTPGQMYQYQVLAEAGGELGEASPPLNHIHGAPYCGDGKVSERLGEECDDGDLVSGDGCSKVCELEEGFNCVGEPSLCYMYEGDGICEPFERKTSIVDCGIYTPKGYLDQWATRAYSSHEDKKKCPVSLVTGEPHSLICTSYHPDLPNHRPLTGWFPCVASENETQDDRSEQPEGSLKKEDEVWLKVCFNRPGEARAIFIFLTTDGLVPGEHQQPTVTLYLTDVRGSNHSLGTYGLSCQHNPLIINVTHHQNVLFHHTTSVLLNFSSPRVGISAVALRTSSRIGLSAPSNCISEDEGQNHQGQSCIHRPCGKQDSCPSLLLDHADVVNCTSIGPGLMKCAITCQRGFALQASSGQYIRPMQKEILLTCSSGHWDQNVSCLPVDCGVPDPSLVNYANFSCSEGTKFLKRCSISCVPPAKLQGLSPWLTCLEDGLWSLPEVYCKLECDAPPIILNANLLLPHCLQDNHDVGTICKYECKPGYYVAESAEGKVRNKLLKIQCLEGGIWEQGSCIPVVCEPPPPVFEGMYECTNGFSLDSQCVLNCNQEREKLPILCTKEGLWTQEFKLCENLQGECPPPPSELNSVEYKCEQGYGIGAVCSPLCVIPPSDPVMLPENITADTLEHWMEPVKVQSIVCTGRRQWHPDPVLVHCIQSCEPFQADGWCDTINNRAYCHYDGGDCCSSTLSSKKVIPFAADCDLDECTCRDPKAEENQ
B2: purified PAPP-A2 (protein)
chain: B1 chain

What was measured:
[1] = target: rIGFBP-5 (gift of D. Andress), P24593
[2] = target: C-terminally c-myc tagged rIGFBP-5 (human IGFBP-5 followed by a c-myc and His tag, expressed in 293T cells), P24593
[3] = target: rIGFBP-3 (gift of D. Powell), P17936
rIGFBP-3 (gift of D. Powell), P17936, sequence (P17936 28-291): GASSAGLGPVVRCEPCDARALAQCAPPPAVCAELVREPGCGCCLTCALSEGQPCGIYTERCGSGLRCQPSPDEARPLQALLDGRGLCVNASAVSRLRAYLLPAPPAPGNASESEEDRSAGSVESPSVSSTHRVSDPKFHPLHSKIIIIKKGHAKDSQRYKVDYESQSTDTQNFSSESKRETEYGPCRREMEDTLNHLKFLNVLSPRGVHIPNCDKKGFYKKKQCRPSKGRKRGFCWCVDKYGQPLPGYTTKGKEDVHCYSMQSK

C-terminally c-myc tagged rIGFBP-5 (human IGFBP-5 followed by a c-myc and His tag, expressed in 293T cells), P24593, sequence (P24593 other isoform, or with tags, fused parts or gaps): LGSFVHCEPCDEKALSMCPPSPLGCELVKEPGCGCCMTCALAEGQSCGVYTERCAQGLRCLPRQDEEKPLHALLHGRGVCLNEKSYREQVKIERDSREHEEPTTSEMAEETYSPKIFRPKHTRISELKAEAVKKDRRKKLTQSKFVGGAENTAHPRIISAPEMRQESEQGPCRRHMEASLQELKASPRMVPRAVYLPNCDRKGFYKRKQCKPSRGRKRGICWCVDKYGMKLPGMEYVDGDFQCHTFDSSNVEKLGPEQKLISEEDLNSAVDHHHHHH
rIGFBP-5 (gift of D. Andress), P24593, sequence (P24593 21-272): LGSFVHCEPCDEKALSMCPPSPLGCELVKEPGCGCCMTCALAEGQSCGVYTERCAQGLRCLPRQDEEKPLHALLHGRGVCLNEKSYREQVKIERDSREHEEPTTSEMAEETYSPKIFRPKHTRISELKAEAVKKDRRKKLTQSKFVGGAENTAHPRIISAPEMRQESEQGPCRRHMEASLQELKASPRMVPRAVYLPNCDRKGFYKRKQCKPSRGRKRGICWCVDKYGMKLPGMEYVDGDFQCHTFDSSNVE

Protein | proteolytic cleavage, ligand blotting with radiolabeled IGF-II [1] | proteolytic activity, Western blotting using anti-c-myc [2] | proteolytic cleavage, ligand blotting with radiolabeled IGF-II [3] | proteolytic cleavage, SDS-PAGE and N-terminal sequence analysis [2]
B1 | Of the six binding proteins, IGFBP-5 showed complete cleavage | In the absence of inhibitors, wild-type PAPP-A2 degraded all rIGFBP-5 (lane 3) | IGFBP-3 was partially degraded | 
B2 |  |  |  | PAPP-A2 cleaves IGFBP-5 at one site, between Ser-143 and Lys-144
